We go through 1 molecule from paper doi:10.1101/481457 (bioRxiv, 2019).

This assay concerns the target T1, CBP Full-HAT domain (central core catalytic region), 6His-tagged (mouse, UniProt P45481 1096-1700).
T1 sequence (looked up): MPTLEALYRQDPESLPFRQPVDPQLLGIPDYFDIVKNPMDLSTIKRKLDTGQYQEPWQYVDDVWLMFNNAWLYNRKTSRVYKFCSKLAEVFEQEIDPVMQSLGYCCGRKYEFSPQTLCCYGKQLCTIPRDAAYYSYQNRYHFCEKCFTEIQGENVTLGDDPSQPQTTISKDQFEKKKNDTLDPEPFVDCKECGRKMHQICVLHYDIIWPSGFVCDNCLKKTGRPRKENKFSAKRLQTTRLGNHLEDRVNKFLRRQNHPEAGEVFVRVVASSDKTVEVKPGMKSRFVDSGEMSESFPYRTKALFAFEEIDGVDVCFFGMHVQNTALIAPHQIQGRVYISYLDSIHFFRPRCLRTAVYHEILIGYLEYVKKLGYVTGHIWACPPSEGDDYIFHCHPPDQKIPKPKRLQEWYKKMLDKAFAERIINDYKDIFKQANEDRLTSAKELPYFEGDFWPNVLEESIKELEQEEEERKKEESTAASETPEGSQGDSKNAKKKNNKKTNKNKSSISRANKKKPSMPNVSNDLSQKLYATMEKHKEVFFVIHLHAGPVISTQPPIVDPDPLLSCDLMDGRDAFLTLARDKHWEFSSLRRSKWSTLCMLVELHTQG
As to the kind of experiment: BLI.

B1: biotinylated recombinant full-length HSF2 (natural protein, UniProt Q03933 1-536, looked up)
chain: MKQSSNVPAFLSKLWTLVEETHTNEFITWSQNGQSFLVLDEQRFAKEILPKYFKHNNMASFVRQLNMYGFRKVVHIDSGIVKQERDGPVEFQHPYFKQGQDDLLENIKRKVSSSKPEENKIRQEDLTKIISSAQKVQIKQETIESRLSELKSENESLWKEVSELRAKHAQQQQVIRKIVQFIVTLVQNNQLVSLKRKRPLLLNTNGAQKKNLFQHIVKEPTDNHHHKVPHSRTEGLKPRERISDDIIIYDVTDDNADEENIPVIPETNEDVISDPSNCSQYPDIVIVEDDNEDEYAPVIQSGEQNEPARESLSSGSDGSSPLMSSAVQLNGSSSLTSEDPVTMMDSILNDNINLLGKVELLDYLDSIDCSLEDFQAMLSGRQFSIDPDLLVDLFTSSVQMNPTDYINNTKSENKGLETTKNNVVQPVSEEGRKSKSKPDKQLIQYTAFPLLAFLDGNPASSVEQASTTASSEVLSSVDKPIEVDELLDSSLDPEPTQSKLVRLEPLTEAEASEATLFYLCELAPAPLDSDMPLLDS
modifications: biotinylated with EZ-Link NHS-PEG4-Biotin at a molar ratio biotin/protein 3:1
As a reminder, the Kd is the equilibrium constant for the complex coming apart. Low values mean a tighter complex, high ones a looser complex. With B1, the Kd was determined as 1 nM.
